Reference: paper PMC7497679, “Structure-based design, synthesis, and evaluation of the biological activity of novel phosphoroorganic small molecule IAP antagonists” (Investigational New Drugs, 2020)
Square brackets hold non-standard residues; d marks the D form. 5(6)‑Fam = 5(6)-carboxyfluorescein; Dpm = not defined here

Target: T1, X-linked inhibitor of apoptosis protein (XIAP) BIR3 domain (human)
T1 construct: Neither the catalogue number, the construct limits nor the tags of the Sino Biological protein are stated; also called XIAP BIR3 protein; source: bought: Sino Biological, Beijing, China
Assay: fluorescence polarisation; direct binding: two-fold serial dilutions of XIAP BIR3 domain (2.5 µM to 0.0763 nM) incubated 30 min with probe 4 (2 nM); r.t.; phosphate buffer pH 7.5 with γ-globulin 100 µg/mL and NaN3 0.02%; one site - total binding model
Details: both partners purified

B1: fluorescent probe H2N-Ala-Val-Pro-Dpm-Ala-Lys(5(6)-Fam)-Lys-NH2 (4) (peptide)
chain: H-AVP[Dpm]AK(5(6)‑Fam)K-NH2
modifications: reading uncertain; also: printed as H2N-Ala-Val-Pro-Dpm-Ala-Lys(5(6)-Fam)-Lys-NH2
- Kd: 49.9 ± 5.37 nM
